Source: US20020160516A1, “Episomal expression vector for human gene therapy and expression system for production of proteins” (priority 1993, published 2002)
Converted amounts (≈) assume the structure as drawn.

T1: p107 (Homo sapiens, UniProt P28749)
T1 sequence (P28749 1-1068): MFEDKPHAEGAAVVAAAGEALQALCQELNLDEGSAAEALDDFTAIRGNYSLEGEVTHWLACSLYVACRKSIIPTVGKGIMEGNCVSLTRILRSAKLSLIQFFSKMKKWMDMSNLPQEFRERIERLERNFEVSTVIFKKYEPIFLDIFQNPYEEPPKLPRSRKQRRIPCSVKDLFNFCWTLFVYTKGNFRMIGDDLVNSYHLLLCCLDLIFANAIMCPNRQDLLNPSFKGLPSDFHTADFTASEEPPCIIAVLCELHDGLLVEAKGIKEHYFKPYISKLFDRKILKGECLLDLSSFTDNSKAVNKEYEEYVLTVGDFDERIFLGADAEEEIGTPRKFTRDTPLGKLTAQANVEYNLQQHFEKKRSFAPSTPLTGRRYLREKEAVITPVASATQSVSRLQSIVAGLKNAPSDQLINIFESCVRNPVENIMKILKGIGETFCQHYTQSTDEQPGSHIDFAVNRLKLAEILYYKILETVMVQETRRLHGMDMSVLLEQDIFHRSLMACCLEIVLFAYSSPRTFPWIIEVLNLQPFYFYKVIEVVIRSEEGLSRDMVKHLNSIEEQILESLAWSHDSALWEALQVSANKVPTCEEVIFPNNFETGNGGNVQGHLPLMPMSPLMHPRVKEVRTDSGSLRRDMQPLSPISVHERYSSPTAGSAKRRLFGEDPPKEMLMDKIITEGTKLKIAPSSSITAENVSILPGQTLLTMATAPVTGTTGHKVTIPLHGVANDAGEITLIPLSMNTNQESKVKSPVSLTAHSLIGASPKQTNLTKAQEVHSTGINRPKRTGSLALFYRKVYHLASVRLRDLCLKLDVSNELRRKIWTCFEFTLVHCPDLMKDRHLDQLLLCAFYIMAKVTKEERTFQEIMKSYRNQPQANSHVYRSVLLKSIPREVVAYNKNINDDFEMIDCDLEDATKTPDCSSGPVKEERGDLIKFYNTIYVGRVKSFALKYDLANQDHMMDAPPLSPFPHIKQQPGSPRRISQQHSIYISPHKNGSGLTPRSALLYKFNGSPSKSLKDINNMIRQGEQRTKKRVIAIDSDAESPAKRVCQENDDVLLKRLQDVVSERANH

T2: human RB (Homo sapiens, UniProt P06400)
T2 sequence (P06400 1-928): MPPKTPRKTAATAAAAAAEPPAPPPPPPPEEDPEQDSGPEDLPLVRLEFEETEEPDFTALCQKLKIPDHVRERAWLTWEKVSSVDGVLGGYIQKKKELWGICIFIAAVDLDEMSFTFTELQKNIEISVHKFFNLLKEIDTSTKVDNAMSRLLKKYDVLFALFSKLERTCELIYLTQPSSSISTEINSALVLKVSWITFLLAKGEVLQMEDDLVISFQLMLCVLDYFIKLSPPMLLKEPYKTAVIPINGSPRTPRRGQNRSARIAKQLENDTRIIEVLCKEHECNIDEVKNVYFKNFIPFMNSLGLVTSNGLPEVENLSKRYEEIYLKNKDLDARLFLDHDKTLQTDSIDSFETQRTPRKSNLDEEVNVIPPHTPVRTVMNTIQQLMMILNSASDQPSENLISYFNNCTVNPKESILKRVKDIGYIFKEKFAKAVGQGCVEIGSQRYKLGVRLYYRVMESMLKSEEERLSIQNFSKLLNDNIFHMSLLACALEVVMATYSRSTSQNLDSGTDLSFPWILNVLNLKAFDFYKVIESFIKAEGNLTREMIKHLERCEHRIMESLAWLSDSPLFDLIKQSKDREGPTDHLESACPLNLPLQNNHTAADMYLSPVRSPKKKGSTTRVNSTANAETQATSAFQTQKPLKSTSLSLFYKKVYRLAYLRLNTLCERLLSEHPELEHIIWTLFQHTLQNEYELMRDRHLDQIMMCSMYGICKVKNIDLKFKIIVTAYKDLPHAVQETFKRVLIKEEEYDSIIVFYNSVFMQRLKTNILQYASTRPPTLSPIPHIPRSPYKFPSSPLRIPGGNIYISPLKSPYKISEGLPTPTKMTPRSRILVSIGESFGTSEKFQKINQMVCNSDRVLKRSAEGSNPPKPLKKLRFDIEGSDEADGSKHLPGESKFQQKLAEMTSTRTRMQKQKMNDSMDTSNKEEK

B1: SV-T: wild-type SV40 large T antigen (protein, UniProt P03070 1-708, looked up)
Large T antigen: MDKVLNREESLQLMDLLGLERSAWGNIPLMRKAYLKKCKEFHPDKGGDEEKMKKMNTLYKKMEDGVKYAHQPDFGGFWDATEIPTYGTDEWEQWWNAFNEENLFCSEEMPSSDDEATADSQHSTPPKKKRKVEDPKDFPSELLSFLSHAVFSNRTLACFAIYTTKEKAALLYKKIMEKYSVTFISRHNSYNHNILFFLTPHRHRVSAINNYAQKLCTFSFLICKGVNKEYLMYSALTRDPFSVIEESLPGGLKEHDFNPEEAEETKQVSWKLVTEYAMETKCDDVLLLLGMYLEFQYSFEMCLKCIKKEQPSHYKYHEKHYANAAIFADSKNQKTICQQAVDTVLAKKRVDSLQLTREQMLTNRFNDLLDRMDIMFGSTGSADIEEWMAGVAWLHCLLPKMDSVVYDFLKCMVYNIPKKRYWLFKGPIDSGKTTLAAALLELCGGKALNVNLPLDRLNFELGVAIDQFLVVFEDVKGTGGESRDLPSGQGINNLDNLRDYLDGSVKVNLEKKHLNKRTQIFPPGIVTMNEYSVPKTLQARFVKQIDFRPKDYLKHCLERSEFLLEKRIIQSGIALLLMLIWYRPVAEFAQSIQSRIVEWKERLDKEFSLSVYQKMKFNVAMGIGVLDWLRNSDDDDEDSQENADKNEDGGEKNMEDSGHETGIDSQSQGSFQAPQSSQSVHDHNQPYHICRGFTCFKKPPTPPPEPET

How the values were obtained:
[1] = tested on: 107/402-T expression in HT-1376 tet-off clone; assay: Doxycycline control of 107/402-T expression in HT-1376 tet-off clone (Western blot); type: cell-based; conditions: Homo sapiens, 96 h, Western blot 4 days after exposure, read-out: half-maximal inhibitory concentration for 107/402-T expression
Source text: To prepare a human cell line in which expression of 107/402-T would be under control of doxycycline, HT-1376 human bladder carcinoma cells were sequentially transfected with three plasmid constructs: (a) pTET-OFF, which encodes the tetracycline-controlled transcriptional transactivator (tTA) under control of the CMV immediate-early promoter and the neomycin resistance gene under control of the SV40 early promoter, (b) pTRE.107/402-T, which encodes 107/402-T under control of the CMV minimal promoter and contains the tetracycline operon (binding site of tTA just upstream of the CMV minimal promoter), and (c) pCMVhygro, which encodes the hygromycin resistance gene under control of the CMV promoter. HT-1376 cells were first transfected with pTET-OFF, and neomycin resistant clones of stable transfectants were characterized by transiently transfecting clones with pTRE.luciferase in the presence or absence of doxycycline. Clones which yielded significant luciferase activity only in the absence of doxycycline (but no detectable luciferase activity in the presence of doxycycline) were then co-transfected with pTRE.107/402-T and pCMVhygro. Again, single cell clones of stable transfectants were screened for high basal levels of 107/402-T and complete turn-off of 107/402-T expression in the presence of doxycycline.
Steady-state levels of 107/402-T are achieved by 3 days. […]

[2] = target: T1, p107; type: binding
[3] = target: p53 (Homo sapiens, UniProt P04637); type: binding
Sequence of p53 (P04637 whole entry): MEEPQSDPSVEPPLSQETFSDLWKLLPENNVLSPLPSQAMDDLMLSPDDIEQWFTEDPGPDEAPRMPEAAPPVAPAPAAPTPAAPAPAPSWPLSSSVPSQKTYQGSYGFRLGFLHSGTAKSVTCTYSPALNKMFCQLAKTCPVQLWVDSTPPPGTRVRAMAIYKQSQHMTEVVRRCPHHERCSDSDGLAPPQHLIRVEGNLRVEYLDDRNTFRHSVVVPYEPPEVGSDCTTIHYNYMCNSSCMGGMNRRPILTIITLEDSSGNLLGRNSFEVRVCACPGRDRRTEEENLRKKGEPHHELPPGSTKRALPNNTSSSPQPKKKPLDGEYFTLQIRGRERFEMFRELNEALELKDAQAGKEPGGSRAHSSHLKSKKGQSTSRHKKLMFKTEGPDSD

[4] = tested on: T24 cell line; assay: Soft agar cloning of T24 clones expressing T antigens; conditions: T24 single cell clones expressing T antigen (SV-T clone A7, 402-T clone G1); ± se
Source text: Transformed cells were trypsinized and then passed through a 30-micron nylon filter (Tetko, Lancaster, N.Y.) to achieve a single cell suspension. The bottom layer of agar consisted of low glucose DMEM supplemented with 10% fetal calf serum and 0.6% Seaplaque agarose (FMC BioProducts, Rockland, Me.). The top layer contained serial dilutions of cells ranging between 10^3 and 10^6 in low-glucose DMEM supplemented with 10% fetal calf serum and 0.3% Seaplaque agarose.

[5] = target: T2, human RB; type: binding

Row | Molecule | IC50 [1] [ng/mL] | Observed signal compared to T, binding to p107 [2] [%] | Observed signal compared to T, binding to p53 [3] [%] | soft agar cloning efficiency [4] | Observed signal compared to T, binding to RB [5] [%]
1 | C[C@H]1c2cccc(O)c2C(=O)C2=C(O)[C@]3(O)C(=O)C(C(N)=O)=C(O)[C@@H](N(C)C)[C@@H]3[C@@H](O)[C@@H]21 [doxycycline] | ~0.01 (≈ 0.0225 nM) | – | – | – | –
2 | B1 | – | 100 | 100 | 0.10%±0.02% | 100
